Reference: the supplement of paper PMC9732359
± gives the uncertainty stated by the source.

Assay: protein stability index of a GFP-peptide fusion (yeast GPS) (PSI 1-4); higher = more stable; sorted into four equal gates, so the index is relative within each strain
Procedure, shortened: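 Peptides tiling yeast proteins in 17-residue segments were fused downstream of GFP, with Cherry expressed from the same plasmid. As a pooled library in yeast, mid-log cultures grown in leucine-free medium were sorted into four equal gates by GFP/Cherry fluorescence ratio. Gate plasmids were PCR-amplified and Illumina-sequenced, and barcodes linked reads to strains. Each peptide received a protein stability index equal to the sum of each gate's read frequency times its gate number.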

Sequence | protein stability index (doa10∆) | protein stability index (pdr5∆) | protein stability index (san1∆) | protein stability index (ubr1∆)
KNFSPTKRVEKPQLKFK [RRP6] | 2.33 ± 0.093 | 2.17 ± 0.1 | 2.39 ± 0.1 | 3.21 ± 0.075
SLTSKRLISQSLLASKS [RIP1] | – | – | – | 1.36 ± 0.21
FLIDVLKIYAQIEKKEI [YCG1] | 1.26 ± 0.07 | 1.93 ± 0.063 | 1.21 ± 0.11 | 1.4 ± 0.054
PLLSNYASKINRAEGPE [RGR1] | 2.88 ± 0.12 | 2.8 ± 0.1 | 2.87 ± 0.12 | 2.55 ± 0.082
VSFRTHNSHLSLNYKFT [SRP21] | 3.01 ± 0.048 | 2.99 ± 0.046 | 3 ± 0.051 | 3.15 ± 0.039
WTEASSSGAGTVKLYLP [ECM29] | 2.05 ± 0.052 | 1.82 ± 0.047 | 2.09 ± 0.067 | 2.02 ± 0.05
PLQSIPEIGNRKINLFY [SWI1] | 1.51 ± 0.07 | 1.48 ± 0.072 | 2.54 ± 0.073 | 1.43 ± 0.064
EITSVLSNLHESNKRYR [SNF12] | 3.1 ± 0.085 | 3.05 ± 0.071 | 2.94 ± 0.054 | 3.08 ± 0.052
ERQQDELENFLDNFETK [YJL041W/NSP1] | 3.23 ± 0.16 | 3.29 ± 0.21 | 3.48 ± 0.13 | 3.38 ± 0.075
AGETLILDGLTVRLVNL [SRB2] | 2.43 ± 0.071 | 2.97 ± 0.082 | 2.46 ± 0.073 | 2.66 ± 0.052
MSLSNKTVKELRQLLKE [RRI1] | 1.95 ± 0.094 | 1.42 ± 0.083 | 1.28 ± 0.11 | 1.85 ± 0.15
AAGIWTCSCCKKTVAGG [RPL43A] | 2.42 ± 0.13 | 3.17 ± 0.11 | 3.02 ± 0.097 | 2.99 ± 0.074
VLEYLAAEILELAGNAA [HTA1] | 2.85 ± 0.1 | 2.44 ± 0.1 | 2.54 ± 0.081 | 2.84 ± 0.1
LSTLRMEADPSLHPLFE [RPN9] | 2.54 ± 0.057 | 2.33 ± 0.042 | 2.18 ± 0.096 | 2.41 ± 0.044
ISKKIIGMSLLMRTFLY [SIR3] | 1.79 ± 0.081 | 2.31 ± 0.065 | 1.99 ± 0.083 | 1.75 ± 0.077
VEFKLPKELVPSHEKLK [CDC53] | 2.37 ± 0.054 | 2.24 ± 0.045 | 2.24 ± 0.071 | 2.08 ± 0.045
AGCKIDNVDDIGEFNVS [YDL088C/ASM4] | 3.25 ± 0.11 | 2.8 ± 0.097 | 2.94 ± 0.096 | 3.06 ± 0.14
QLQQQPQMQCALQNLSQ [YGL172W/NUP49] | 2.19 ± 0.12 | 2.06 ± 0.09 | 2.42 ± 0.11 | 2.18 ± 0.077
